Biological target: T1, GST-NHERF1-PDZ2 (PDZ2 domain of Na+/H+ exchanger regulatory factor 1 fused to GST)
T1 sequence (O14745 whole entry, species assumed, looked up): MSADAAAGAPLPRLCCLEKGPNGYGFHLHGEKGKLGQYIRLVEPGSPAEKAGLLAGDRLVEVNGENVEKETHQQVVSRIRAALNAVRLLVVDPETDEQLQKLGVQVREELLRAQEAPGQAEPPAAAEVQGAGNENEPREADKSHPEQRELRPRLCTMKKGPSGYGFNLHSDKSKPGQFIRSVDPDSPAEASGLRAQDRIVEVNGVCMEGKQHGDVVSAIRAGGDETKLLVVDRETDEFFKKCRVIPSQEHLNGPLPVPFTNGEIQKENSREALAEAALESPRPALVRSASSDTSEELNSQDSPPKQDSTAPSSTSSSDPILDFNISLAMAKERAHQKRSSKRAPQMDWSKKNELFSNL
Assay: AlphaScreen or HTRF

Row | Substance | IC50 [nM]
1 | Flag-WT CFTR (cystic fibrosis transmembrane-conductance regulator, wild type) (from UniProt P13569 1-1480) (natural protein) | 89.3
2 | Flag-ΔF508 CFTR (CFTR with deletion of phenylalanine at residue 508) (from UniProt P13569 1-1480) (natural protein) | 442
